Measured values from paper PMC7686228.

What was measured:
[1] = molecular target: parDMFase large subunit expressed and purified without the small subunit (Paracoccus sp. strain DMF); assay: SEC; large subunit purified without the small subunit; data not shown
[2] = molecular target: parDMFase α2β2 complex (the 'dimer', 200 kDa) (Paracoccus sp. strain DMF); assay: cryo-EM structure; purified parDMFase on ice; data set with 200 mM NaCl, tetramer (α2β2)2 reconstruction at 2.8 Å (initial mixed data set: 3.8 Å); step: dimer of α2β2 dimers

Row | Substance | stoichiometry N [1] | stoichiometry N [2]
1 | parDMFase large subunit expressed and purified without the small subunit (enzyme) | 2 | –
2 | parDMFase α2β2 complex (the 'dimer', 200 kDa) | – | 2
